{"source": "patent US12065466B2", "about": "“Methods and compositions for protein sequencing” (Quantum-Si Incorporated, priority 2020, dated 2024)"}
{"system": "amino acid at a terminal position of a polypeptide", "assay": "Amino acid binding preference of recognition proteins (Tables 1 and 2)", "settings": "Table 1, ClpS proteins; amino acid identity at a terminal position of a polypeptide; inferred from literature and/or demonstrated by the inventors", "text": "It should be appreciated that these sequences and other examples described herein are meant to be non-limiting, and recognition molecules in accordance with the application can include any homologs, variants thereof, or fragments thereof minimally containing domains or subdomains responsible for peptide recognition."}
{"molecule": "PS427: ClpS protein, SEQ ID NO: 50 (protein) MSTKEKVKERVREKEAISFNNEIIVYNDDVNTFDHVIETLIRVCNHTPEQAEQCSLIVHYNGKCTVKTGSMDKLKPQCTQLLEAGLSAEIV", "Binding Pref.": "F, W"}
{"molecule": "PS408: ClpS protein, SEQ ID NO: 31 (protein) MTDPPSKGREDVDLATRTKPKTQRPPLYKVLLLNDDFTPMEFVVHILERLFGMTHAQAIEIMLTVHRKGVAVVGVFSHEIAETKVAQVMELARRQQHPLQCTMEKE", "Binding Pref.": "F, Y, W, L"}
{"molecule": "PS411: ClpS protein, SEQ ID NO: 34 (protein) MTRPDAPEYDDDLAVEPAEPELARPPLYKVVLHNDDFTPMEFVVEVLQEFFNMDSEQAVQVMLAVHTQGKATCGIFTRDIAETKSYQVNEYARECEHPLMCDIEAAD", "Binding Pref.": "F, Y, W, L"}
{"molecule": "PS420: ClpS protein, SEQ ID NO: 43 (protein) MSDYSNQISQAGSGVAEDASITLPPERKVVFYNDDFTTMEFVVDVLVSIFNKSHSEAEELMQTVHQEGSSVVGVYTYDIAVSRTNLTIQAARKNGFPLRVEVE", "Binding Pref.": "F, Y, W, L"}
{"molecule": "PS369: ClpS protein, SEQ ID NO: 2 (protein) MTSTLRARPARDTDLQHRPYPHYRIIVLDDDVNTFQHVVNCLVTFLPGMTRDQAWAMAQQVDGEGSAVVWTGPQEQAELYHVQLGNHGLTMAPLEPV", "Binding Pref.": "F, Y, W, L"}
{"molecule": "PS396: ClpS protein, SEQ ID NO: 24 (protein) MSDNDVALKPKIKSKPKLERPKLYKVILVNDDFTPREFVIAVLKMVFRMSEETGYRVMLTAHRLGTSVVVVCARDIAETKAKEAVDFGKEAGFPLMFTTEPEE", "Binding Pref.": "F, W"}
{"molecule": "PS404: ClpS protein, SEQ ID NO: 27 (protein) MPVSVTAPQTKTKTKPKVERPKLYKVILVNDDFTPREFVVRVLKAEFRMSEDQAAKVMMTAHQRGVCVVAVFTRDVAETKATRATDAGRAKGYPLLFTTEPEE", "Binding Pref.": "F, Y, W"}
{"molecule": "PS422: ClpS protein, SEQ ID NO: 45 (protein) MTQIKPQTIPDTDVISQTQSDWQMPDLYAVIMHNDDYTTMDFVVFLLNAVFDKPIEQAYQLMMQIHQTGRAVVAILPYEIAEMKVDEATSLAEQEQFPLFISIEQA", "Binding Pref.": "F, Y, W, L"}
{"molecule": "PS421: ClpS protein, SEQ ID NO: 44 (protein) MTTPNKRPEFEPEIGLEDEVGEPRKYKVLLHNDDYTTMDFVVQVLIEVFRKSETEATHIMLTIHEKGVGTCGIYPAEVAETKINEVHTRARREGFPLRASMEEV", "Binding Pref.": "F, Y, W, L"}
{"molecule": "PS415: ClpS protein, SEQ ID NO: 38 (protein) MALPETRTKIKPDVNIKEPPNYRVIYLNDDKTSMEFVIGSLMQHFSYPQQQAVEKTEEVHEHGSSTVAVLPYEMAEQKGIEVTLDARAEGFPLQVKIEPAER", "Binding Pref.": "F, Y, W"}
{"molecule": "PS418: ClpS protein, SEQ ID NO: 41 (protein) MSDHNIDHDTSVAVHLDVVVREPPMYRVVLLNDDFTPMEFVVELLMHFFRKTAEQATQIMLNIHHEGVGVCGTYPREIAETKVAQVHQHARTNGHPLKCRMEPS", "Binding Pref.": "F, Y, W, L"}
{"molecule": "PS412: ClpS protein, SEQ ID NO: 35 (protein) MATKREGSTLLEPTAAKVKPPPLYKVLLLNDDYTPMEFVVLVLKKFFGIDQERATQIMLKVHTEGVGVCGVYPRDIAHTKVEQVVDFARQHQHPLQCTMEES", "Binding Pref.": "F, Y, W, L"}
{"molecule": "PS407: ClpS protein, SEQ ID NO: 30 (protein) MPSNKRQMCLSDIKNSFNESGIVDWHISPRLANEPSEEGDSDLAVQTVPPELKRPPLYAVVLLNDDYTPMEFVIEILQQYFAMNLDQATQVMLTVHYEGKGVAGVYPRDIAETKANQVNNYARSQGHPLLCQIEPKD", "Binding Pref.": "F, Y, W, L"}
{"molecule": "PS416: ClpS protein, SEQ ID NO: 39 (protein) MTSQTDTLVKPNIQPPSLFKVIYINDSVTTMEFVVESLMSVFNHSADEATRLTQLVHEEGAAVVAILPYELAEQKGMEVTLLARNNGFPLAIRLEPAV", "Binding Pref.": "F, Y, W, L"}
{"molecule": "PS397: ClpS protein, SEQ ID NO: 25 (protein) MSDNEVAPKRKTRVKPKLERPRLYKVILVNDDYTPRDFVVMVLKAIFRMSEEAGYRVMMTAHKLGTSVVVVCARDIAETKAKEATDLGKEAGFPLMFTTEPEE", "Binding Pref.": "F, Y, W"}
{"molecule": "PS424: ClpS protein, SEQ ID NO: 47 (protein) MSVETIEKRSTTRKLAPQYRVLLHNDDYNSMEYVVQVLMTSVPSITQPQAVNIMMEAHNSGLALVITCAQEHAEFYCETLKGHGLSSTIEPD", "Binding Pref.": "F, Y, W"}
{"molecule": "PS370: ClpS protein, SEQ ID NO: 3 (protein) MFNSLGTVLDPKKSKAKYPEARVIVLDDNFNTFQHVANCLLAIIPRMCEQRAWDLTIKVDKAGSAEVWRGNLEQAELYHEQLFSKGLTMAPIEKT", "Binding Pref.": "F, L"}
{"molecule": "PS425: ClpS protein, SEQ ID NO: 48 (protein) MTHYFSNILRDQESPKINPKELEQIDVLEEKEHQIILYNDDVNTFEHVIDCLVKICEHNYLQAEQCAYIVHHSGKCSVKTGSLDELVPKCNALLEEGLSAEVV", "Binding Pref.": "F, Y, W, L"}
{"molecule": "PS409: ClpS protein, SEQ ID NO: 32 (protein) MPARLTDIEGEPNTDPVEDVLLADPELKKPQMYAVVMYNDDYTPMEFVVDVLQNHFKHTLDSAISIMLAIHQQGKGIAGIYPKDIAETKAQTVNRKARQAGYPLLSQIEPQG", "Binding Pref.": "F, Y, W, L"}
{"molecule": "PS414: ClpS protein, SEQ ID NO: 37 (protein) MQAAGNEPPDPQNPGDVGNGGDGGNQDGSNTGVVVKTRTRTRKPAMYKVLMLNDDYTPMEFVVHVLERFFQKNREEATRIMLHVHRRGVGVCGVYTYEVAETKVTQVMDLARQNQHPLQCTIEKE", "Binding Pref.": "F, Y, W, L"}
{"molecule": "PS413: ClpS protein, SEQ ID NO: 36 (protein) MMKQCGSYFLIKAVQDFKPLSKHRSDTDVITETKIQVKQPKLYTVIMYNDNYTTMDFVVYVLVEIFQHSIDKAYQLMMQIHESGQAAVALLPYDLAEMKVDEVTALAEQESYPLLTTIEPA", "Binding Pref.": "F, Y, W, L"}
{"molecule": "PS398: ClpS protein, SEQ ID NO: 26 (protein) MPLKAQNRSIVGRRDEWPPPTTQSSSETKSESKRVSDTGADTKRKTKTVPKVEKPRLYKVILVNDDYTPREFVLVVLKAVFRMSEDQGYKVMITAHQKGSCVVAVYTRDIAETKAKEAVDLAKEIGFPLMFRTEPEE", "Binding Pref.": "F, W"}
{"molecule": "PS417: ClpS protein, SEQ ID NO: 40 (protein) MSNLDTDVLIDEKVKVVTTEPEKYRVILLNDDVTPMDFVINILVSIFKHSTDTAKDLTLKIHKEGSAIVGVYTYEIAEQKGIEATNESRQHGFPLQVKIERENTL", "Binding Pref.": "F, Y, W"}
{"molecule": "PS405: ClpS protein, SEQ ID NO: 28 (protein) MVSIGAATVACAEGRPIFSGYFDWLAAMPETVTVPRTRLRPKTERPKLHKVILVNDDYTPREFVVTVLKGEFHMSEDQAQRVMITAHRRGVCVVAVFTKDVAETKATRASDAGRAKGYPLQFTTEPEE", "Binding Pref.": "F, Y, W"}
{"molecule": "PS419: ClpS protein, SEQ ID NO: 42 (protein) MEKEQSLCKEKTHVELSEPKHYKVVFHNDDFTTMDFVVKVLQLVFFKSQLQAEDLTMKIHLEGSATAGIYSYDIAQSKAQKTTQMAREEGFPLRLTVEPEDN", "Binding Pref.": "F, Y, W, L"}
{"molecule": "PS371: ClpS protein, SEQ ID NO: 4 (protein) MATETIERPRTRDPGSGLGGHWLVIVLNDDHNTFDHVAKTLARVIPGVTVDDGYRFADQIHQRGQAIVWRGPKEPAEHYWEQLQDAGLSMAPLERH", "Binding Pref.": "F, Y, W, L"}
{"molecule": "PS406: ClpS protein, SEQ ID NO: 29 (protein) MPDATTTPRTKTLTRTARPPLHKVILVNDDFTPREFVVRLLKAEFRTTGDEAQRIMITAHMKGSCVVAVFTREIAESKATRATETARAEGFPLLFTTEPEE", "Binding Pref.": "F, Y, W"}
{"molecule": "PS426: ClpS protein, SEQ ID NO: 49 (protein) MSIIEKTQENVAILEKVSINHEIILYNDDVNTFDHVIETLIRVCNHEELQAEQCAILVHYTGKCAVKTGSFDELQPLCLALLDAGLSAEIT", "Binding Pref.": "F, Y, W, L"}
{"molecule": "PS423: ClpS protein, SEQ ID NO: 46 (protein) MAPTPAGAAVLDKQQQRRHKHASRYRVLLHNDPVNTMEYVVESLRQVVPQLSEQDAIAVMVEAHNTGVGLVIVCDIEPAEFYCEQLKTKGLTSSIEPED", "Binding Pref.": "F, Y, W"}
{"molecule": "PS410: ClpS protein, SEQ ID NO: 33 (protein) MGDDDQSSREGEGDVAFQTADPELKRPSLYRVVLLNDDYTPMEFVVHILEQFFAMNREKATQVMLAVHTQGKGVCGVYTKDIAETKAALVNDYSRENQHPLLCEVEELDDESR", "Binding Pref.": "F, W, L"}
